A short description of this data set: yeast display, Sf9 membrane polyspecificity reagent, FACS + sequencing; frameworks hold sequencing errors. The method, boiled down:
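Nanobodies from a synthetic yeast display library (Saccharomyces cerevisiae BJ5465), induced 36–48 hours with galactose, were stained 1 hour at 4 °C with 10% biotinylated, detergent-solubilized Sf9 membrane reagent, enriched on streptavidin microbeads, then FACS-sorted. Anti-HA (expression) and streptavidin (reagent binding) fluorescence set low and high (top ~1%) gates. Polyreactivity labels come from the gate of origin. Genes were colony-PCR amplified, MiSeq 2 × 250 sequenced and filtered by CDR length.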
“QVQLVESGGGLVQAGGSLRLSCAASGRIFKNNTMGWYRQAPGKERELVAAISCSGGSTYYADSVKGRFTISRDNAKNTVYLQINSLKPEDTAVYYCATTYEPNGGIEDDYWGQGTQVTVSS”: the “polyreactivity (PSR sort gate)” value is reported as “low polyreactivity”. Next, “QVQLVESGGGLVQAGGSLRLSCAASGRIFKNYAMGWYRQAPGKERELVAAITWSVGSTYYADSVKGRFTISRDNAKNTVYLQMNSLKPEDTAVYYCAARRSDFRGAKDGYYYWGQGTQVTVSS”: “low polyreactivity”. Under “QVQLVESGGGLVQAGGSLRLSCAASGRIFKPYAMGWYRQAPGKERELVASISRRGGSTYYADSVKGRFTISRDNAKNTVYLQMNSLKPEDTAVYDCNASGTYISLGYDYWGQGTQVTVSS” stands “high polyreactivity”. Next, “QVQLVESGGGLVQAGGSLRLSCAASGRIFKRNAMGCYRQAPGKERELVATIDWSGGSTYYADSVKGRFTISRDNAKNTVYLQMNSLKPEDTAVYYCAAASGRWNKYGYWGQGTQVTVSS”: “low polyreactivity”. For “QVQLVESGGGLVQAGGSLRLSCAASGRIFKRNAMGWYRQAPGKERELVAAITGNVGSTYYADSVKGRFTISRDNAKNTVYLQMNSLKPEDTAVYYCAAYVQYSSIVGYGYWGQGTQVTVSS”, the “polyreactivity (PSR sort gate)” value is given as “high polyreactivity”.

For “QVQLVESGGGLVQAGGSLRLSCAASGRIFKRNTMGWYRQAPGKEMELVAAITYSGITYYADSVKGRFTISRDNAKNTVYLQMNSLKPEDTAVYYCAKVLYPIGSPRFEFWGQGTQVTVSS”, the “polyreactivity (PSR sort gate)” value is recorded as “low polyreactivity”. Next, “QVQLVESGGGLVQAGGSLRLSCAASGRIFKRYVMGWYRKAPGKERELVAAITWRGGTYYADSVKGRFTISRDNAKNTVYLQMNSLKPEDTAVYYCAADTYFSGAGGQAYQYDYWGLGTQVTVSS”: “high polyreactivity”; “QVQLVESGGGLVQAGGSLRLSCAASGRIFKSYAMGWYRQAPGIERELVAAIRSGGSTYYADSVKGRFTISRDNAKNTVYLQMNSLKPEYTAVYYCNRVTRTWKVTYHSWGQGTQVTVSS”: “high polyreactivity”. Regarding “QVQLVESGGGLVQAGGSLRLSCAASGRIFKSYDIGWYRQAPGKEMELVSAISQSGGGTYYADSVKGRFTISRDNAKNTVYLQMNSLKPEDTAVYYCAAYRRVNRYQKIDNYWGQGTQVTVSS”, the “polyreactivity (PSR sort gate)” value is “high polyreactivity”. As for “QVQLVESGGGLVQAGGSLRLSCAASGRIFKTNAMGWYRQAPGKERELVAAISKRGGRTYYADSVKGRFTISRDNAKNTVYLQMNSLKPEDTAVYYCATRYSGYSLGDYWGQGTQVTVSS”, the “polyreactivity (PSR sort gate)” value was “high polyreactivity”.

For the sequence “QVQLVESGGGLVQAGGSLRLSCAASGRIFKVYTMGWYRQAPGKERELVATITRSGTSTYYADSVKGRFTISRDIAKNTVYLQMNSLKPEDTAVYYCARLVGYKFSYDYWGQGTQVTVSS”, the “polyreactivity (PSR sort gate)” value is “high polyreactivity”. Next, “QVQLVESGGGLVQAGGSLRLSCAASGRIFKYNAMGWYRQAPGKERELVAAISGRGVSTYYADSVKGRFTISRDNAKNPVYLQMNSLKPEDTAVYYCAAETVHGSADFDDWGQGTQVTVSS”: “low polyreactivity”. Under “QVQLVESGGGLVQAGGSLRLSCAASGRIFKYNAMGWYRQAPGKERELVAVITSGGSTNYADSVKGRFTISRDNAKNTVYLQMNSLKPEDTAVYYCNARRYSTYDYWGQGTQVTVSS” stands “high polyreactivity”; under “QVQLVESGGGLVQAGGSLRLSCAASGRIFKYNAMGWYRQATGKERELVAAISSSGGSTYYADSVKGRFTISRDNANNTVYLQMNSLKPEDTAVYYCAARYNSRVYRYDYWGQGTQVTVSS”, “high polyreactivity”; under “QVQLVESGGGLVQAGGSLRLSCAASGRIFKYYAMGWYRQAPGKERELVAAITSAGNTKYADSVKGRFTISRDNAKNTVYLQMNSLKPEDTAVYYCARGRYYVIGSYDYWGQGTQVTVSS”, “high polyreactivity”. Next, “QVQLVESGGGLVQAGGSLRLSCAASGRIFKYYAMGWYRQAPWKERELVDTIRRSGGSTYYADSVKGRFTISRDNAKNTVYLQMNSLKPEDTAVYYCNARYLFLQAWLRPYRSDYWGQVTQVTVSS”: “high polyreactivity”; “QVQLVESGGGLVQAGGSLRLSCAASGRIFLFYAMGWYRQAPGKERELVASITSSGGDTSYYADSVKGRFTISLDNAKNTVYLQMNSLKPEDNAVYYCASRPWTSWRYYYWGQGTQVTVSS”: “high polyreactivity”.

As to “QVQLVESGGGLVQAGGSLRLSCAASGRIFLGYAMGRYRPARGKERELVAAISTSGGSTYYADSVKGRFTISRDNAKNTVYLQMNSLKPEDTAVYYCAARNVRTYVTGVDYDYWGQGTQVTVSS”, the “polyreactivity (PSR sort gate)” value is “high polyreactivity”.

On to “QVQLVESGGGLVQAGGSLRLSCAASGRIFLINAMGWYRQAPGKERELVAAITSSGGSTYYADSVKGRFTISRDNAKNTVYLQMNSLKPEDTAVYYCATRSYRGRPYNYWGQGTQVTVSS”, for which the “polyreactivity (PSR sort gate)” value is listed as “high polyreactivity”. Under “QVQLVESGGGLVQAGGSLRLSCAASGRIFLIYTMGWYRQAPGKERELVASITFRSGSTYYADSVKGRFTISRDNAKNTVYLQMNSLKPEDTAVYYCAADRGVLNQFDYWGQGTQVTVSS” stands “low polyreactivity”; under “QVQLVESGGGLVQAGGSLRLSCAASGRIFLKYTMGWYRQAPGKERELVAAISRGGSTYYADSVKGRFTISRDNAKNTVYLQMNSLKPEDTAVYYCAATSYRRTGYNYWGQGTQVTVSS”, “high polyreactivity”; under “QVQLVESGGGLVQAGGSLRLSCAASGRIFLLNAMGWYRQAPGKERELVARISSGRTYYADSVKGRFTISRDNAKNTVYLNMNSLKPEDTAVYYCNATVSSSKYRYFYVNPYYYWGQGTQVTVSS”, “low polyreactivity”. Next, “QVQLVESGGGLVQAGGSLRLSCAASGRIFLLNPMGWYRKAPGKERELVARISSGRTYYADSVKGRFTISRDNAKNTVYLQMNILKPEDTAVYYCNATVSSSKYRYFYVNPYDYWGQGTQVTVSS”: “low polyreactivity”; “QVQLVESGGGLVQAGGSLRLSCAASGRIFLRNAMGWSRQAPRKERELVAAISSSGGRTYYADSVKGRFTISRDNAKNTVYLQMNSLKPEDTAVYYCNARWHGSFDYWGQGTQVTVSS”: “low polyreactivity”. Turning to “QVQLVESGGGLVQAGGSLRLSCAASGRIFLRNDMGWYRQAPGKERELFAGISSDGSTYYADSVKGRFTISRDNAKNTVYLQMNSLKPEDTAVYYCAAERWGNPTDYQFWRPYDYWGQGTKVTVSS”, the “polyreactivity (PSR sort gate)” value is “low polyreactivity”.

For the sequence “QVQLVESGGGLVQAGGSLRLSCAASGRIFLRNDMGWYRQAPGKERELVAGISSDGSTYYADSVKGRFTISRDNAKNTVYLQMNSLKPEDTAVYYCAAERWGNPTDYQFWRPYDYWGQGTQVTVSS”, the “polyreactivity (PSR sort gate)” value is “low polyreactivity”. Under “QVQLVESGGGLVQAGGSLRLSCAASGRIFLRYALGWYRQAPGKEREWVAVITWSGGSTNYADSVKGRFTISRDNAKNTVYLQMNSLKPEDTAVYYCAVDNTGRSWPYDYWGQGTQVTVSS” stands “low polyreactivity”.

For the sequence “QVQLVESGGGLVQAGGSLRLSCAASGRIFLSNAMGRYRQAPRKDRELVAAISWTGGSTYYADSVKGRFTISRDNAKNTVYLQMNSLKPEDTAVYYCAASTVGQTYSYYVDTYDYWGQGTQVTVSS”, the “polyreactivity (PSR sort gate)” value is given as “low polyreactivity”. Under “QVQLVESGGGLVQAGGSLRLSCAASGRIFLSNGMGWYRQAPGKERELVAGITTGGGDSTYYADSVKGRFTISRDNAKNTVYLQMNSLKPEDTAVYYCNADSVYAGFDYWGQGTQVTVSS” stands “low polyreactivity”. Regarding “QVQLVESGGGLVQAGGSLRLSCAASGRIFLSYAMGWYRQAPGKERELVAAIRSTGTRTYYADSVKGRFTISRDNAKNTVYLQMNSLKPEDTAVYYCAVGDYGLWSYDYWGQGTQVTVSS”, the “polyreactivity (PSR sort gate)” value is given as “low polyreactivity”.

These data come from the nanobody polyreactivity screen of Harvey et al. (2022).
